No end group written: not given here. *: point of attachment. Biotin = O=C1N[C@H]2[C@H](CS[C@H]2CCCCC(=O)*)N1
Experiments:
[1] = target: T1, asyn_113-127_114A (human); test: Ala-scan peptide ELISA, row D, run 2
T1 construct: substitution is already in the entry; also called pep3
T1 peptide: Biotin-LADMPVDPDNEAYEM
Protocol: (§1) 96-well Nunc plates were coated with 50 μL per well of 1 μg/mL streptavidin (from Jackson Immuno Research Laboratory) in PBS at 4° C. overnight. The plates were washed three times with PBST, and blocked with PBS containing 3% BSA at room temperature for 1 hour. The N-terminal biotinylated peptides were dissolved in Milli Q water to a concentration of 2 mg/mL, then further diluted to a concentration of 2 μg/mL with PBS. 50 μl of the diluted peptide was applied to the streptavidin-coated plates and incubated at 4° C. overnight. 2 μg/mL of biotinylated human alpha-synuclein was used as the positive control. The plates were washed three times with PBST before use. Purified antibody was diluted by serial dilution methods, from 20 μg/mL to 1 ng/mL, and 50 μL of the antibody solution was added to the peptide-coated wells. The plates were incubated for 1 hour at room temperature, then washed three times with PBST. Secondary detection antibody (goat anti-rat HRP (obtained from Southern Biotech)) was added with 1:5,000 dilutions and incubated for 1 hour at room temperature, then washed three times with PBST. Plates were developed with 50 μL/well of TMB substrate (Thermo Fisher) and quenched with 50 μL/well of 1 N sulfuric acid. The signal was quantified on a BioTek® plate reader at A450. A parallel repeat was performed for each peptide in a separate plate.

[2] = target: T2, asyn_113-127_126A (human); test: Ala-scan peptide ELISA, row D, run 2
T2 construct: substitution is already in the entry; also called pep16
T2 peptide: Biotin-LEDMPVDPDNEAYAM
Protocol: as §1

[3] = target: T3, asyn_113-127_125A (human); test: Ala-scan peptide ELISA, row D, run 2
T3 construct: substitution is already in the entry; also called pep15
T3 peptide: Biotin-LEDMPVDPDNEAAEM
Protocol: as §1

[4] = target: T4, asyn_113-127_121A (human); test: Ala-scan peptide ELISA, row D, run 2
T4 construct: substitution is already in the entry; also called pep10
T4 peptide: Biotin-LEDMPVDPANEAYEM
Protocol: as §1

[5] = target: T5, asyn_113-127_115A (human); test: Ala-scan peptide ELISA, row D, run 2
T5 construct: substitution is already in the entry; also called pep4
T5 peptide: Biotin-LEAMPVDPDNEAYEM
Protocol: as §1

[6] = target: T6, asyn_113-127_116A (human); test: Ala-scan peptide ELISA, row D, run 2
T6 construct: substitution is already in the entry; also called pep5
T6 peptide: Biotin-LEDAPVDPDNEAYEM
Protocol: as §1

[7] = target: T7, asyn_113-127_127A (human); test: Ala-scan peptide ELISA, row D, run 2
T7 construct: substitution is already in the entry; also called pep17
T7 peptide: Biotin-LEDMPVDPDNEAYEA
Protocol: as §1

[8] = target: T8, asyn_113-127 (human); test: Ala-scan peptide ELISA, row D, run 2
T8 construct: also called pep1
T8 peptide: Biotin-LEDMPVDPDNEAYEM
Protocol: as §1

[9] = target: T9, asyn_113-127_124G (human); test: Ala-scan peptide ELISA, row D, run 2
T9 construct: substitution is already in the entry; also called pep13
T9 peptide: Biotin-LEDMPVDPDNEGYEM
Protocol: as §1

[10] = target: T10, asyn_113-127_119A (human); test: Ala-scan peptide ELISA, row D, run 2
T10 construct: substitution is already in the entry; also called pep8
T10 peptide: Biotin-LEDMPVAPDNEAYEM
Protocol: as §1

[11] = target: T11, asyn_113-127_118A (human); test: Ala-scan peptide ELISA, row D, run 2
T11 construct: substitution is already in the entry; also called pep7
T11 peptide: Biotin-LEDMPADPDNEAYEM
Protocol: as §1

[12] = target: biotinylated human alpha-synuclein (human, UniProt P37840 1-140); test: Ala-scan peptide ELISA, row D, run 2
Protocol: as §1

[13] = target: T12, asyn_113-127_117A (human); test: Ala-scan peptide ELISA, row D, run 2
T12 construct: substitution is already in the entry; also called pep6
T12 peptide: Biotin-LEDMAVDPDNEAYEM
Protocol: as §1

[14] = target: T13, asyn_113-127_123A (human); test: Ala-scan peptide ELISA, row D, run 2
T13 construct: substitution is already in the entry; also called pep12
T13 peptide: Biotin-LEDMPVDPDNAAYEM
Protocol: as §1

[15] = target: T14, asyn_113-127_124P (human); test: Ala-scan peptide ELISA, row D, run 2
T14 construct: substitution is already in the entry; also called pep14
T14 peptide: Biotin-LEDMPVDPDNEPYEM
Protocol: as §1

[16] = target: T15, asyn_113-127_122A (human); test: Ala-scan peptide ELISA, row D, run 2
T15 construct: substitution is already in the entry; also called pep11
T15 peptide: Biotin-LEDMPVDPDAEAYEM
Protocol: as §1

[17] = target: T16, asyn_113-127_113A (human); test: Ala-scan peptide ELISA, row D, run 2
T16 construct: substitution is already in the entry; also called pep2
T16 peptide: Biotin-AEDMPVDPDNEAYEM
Protocol: as §1

[18] = target: T17, asyn_113-127_120A (human); test: Ala-scan peptide ELISA, row D, run 2
T17 construct: substitution is already in the entry; also called pep9
T17 peptide: Biotin-LEDMPVDADNEAYEM
Protocol: as §1

[19] = target: T3, asyn_113-127_125A; test: Ala-scan peptide ELISA, row C, run 1; also: test concentration or dose not given here
[20] = target: T4, asyn_113-127_121A; test: Ala-scan peptide ELISA, row C, run 1; also: test concentration or dose not given here
[21] = target: T5, asyn_113-127_115A; test: Ala-scan peptide ELISA, row C, run 1; also: test concentration or dose not given here
[22] = target: T9, asyn_113-127_124G; test: Ala-scan peptide ELISA, row C, run 1; also: test concentration or dose not given here
[23] = target: T10, asyn_113-127_119A; test: Ala-scan peptide ELISA, row C, run 1; also: test concentration or dose not given here
[24] = target: T11, asyn_113-127_118A; test: Ala-scan peptide ELISA, row C, run 1; also: test concentration or dose not given here
[25] = target: T12, asyn_113-127_117A; test: Ala-scan peptide ELISA, row C, run 1
Protocol: as §1

[26] = target: T13, asyn_113-127_123A; test: Ala-scan peptide ELISA, row C, run 1
Protocol: as §1

[27] = target: T14, asyn_113-127_124P; test: Ala-scan peptide ELISA, row C, run 1
Protocol: as §1

B1: 20H4 (antibody, rat IgG2b, V domains shown)
VH: AVQLVESGGGLVQPKESLKISCAASGFTFSNAAMYWVRQAPGKGLELLARIRTKPNNYATYHADSVKGRFTISRDDSQSMVYLHMGNLKTEDTAMYYCTADMATGDYWGPGVMVTVSS
VL: DIQMTQSPPVLSVSVGDRVTLSCKASQNINKNLDWYQQKHGEAPKPLIYSTNNLQTGVPSRFSGSGSGTDYTLTISSLQPEDVATYYCYQYKSAWTFGGGTKLELR
notes: also called clone 20H4; rat 20H4
**Q.** How did the A450 [1] turn out when B1 was run?
**A.** Its A450 is 0.348 OD.

**Q.** What about the A450 [2] of the same binder?
**A.** Its A450 is 0.342 OD.

**Q.** And the A450 [3]?
**A.** The A450 was 0.05 OD.

**Q.** What about the A450 [4] of the same binder?
**A.** Its A450 is 0.335 OD.

**Q.** What about the A450 [5] of the same binder?
**A.** The A450 was 0.266 OD.

**Q.** And the A450 [6]?
**A.** The A450 was 0.366 OD.

**Q.** What about the A450 [7] of the same binder?
**A.** The A450 was 0.414 OD.

**Q.** And the A450 [8]?
**A.** Its A450 is 0.331 OD.

**Q.** And the A450 [9]?
**A.** Its A450 is 0.287 OD.

**Q.** And the A450 [10]?
**A.** Its A450 is 0.046 OD.

**Q.** And the A450 [11]?
**A.** Its A450 is 0.357 OD.

**Q.** And the A450 [12]?
**A.** Its A450 is 0.767 OD.

**Q.** What about the A450 [13] of the same binder?
**A.** Its A450 is 0.405 OD.

**Q.** And the A450 [14]?
**A.** Its A450 is 0.321 OD.

**Q.** And the A450 [15]?
**A.** Its A450 is 0.05 OD.

**Q.** And the A450 [16]?
**A.** Its A450 is 0.051 OD.

**Q.** And the A450 [17]?
**A.** The A450 was 0.339 OD.

**Q.** And the A450 [18]?
**A.** Its A450 is 0.18 OD.

**Q.** And the A450 [19]?
**A.** The A450 was 0.049 OD.

**Q.** And the A450 [20]?
**A.** The A450 was 0.443 OD.

**Q.** What about the A450 [21] of the same binder?
**A.** The A450 was 0.417 OD.

**Q.** What about the A450 [22] of the same binder?
**A.** The A450 was 0.34 OD.

**Q.** And the A450 [23]?
**A.** Its A450 is 0.059 OD.

**Q.** What about the A450 [24] of the same binder?
**A.** The A450 was 0.403 OD.

**Q.** And the A450 [25]?
**A.** Its A450 is 0.494 OD.

**Q.** What about the A450 [26] of the same binder?
**A.** Its A450 is 0.476 OD.

**Q.** And the A450 [27]?
**A.** Its A450 is 0.051 OD.

Source: US20230074436A1 (DENALI THERAPEUTICS, published 2023)
